Measurements: the supplement of paper PMC9233669
Fewer inactive variants are shown than the library holds.

What was measured:
biotinyl-Ile-oxazolone = test: self-aminoacylation, catalytic enhancement (BIO) (fold over background); higher = more active; k-Seq, kA / k0A0; sequences stand for … in GGGAAUGGAUCCACAUCUACGAAUUC…UUCACUGCAGACUUGACGAAGCUG
Method in brief: (§1)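 Mutagenized RNA pools with a 21-nt variable region (0.43 μM) were reacted with each biotinyl-aminoacyl-oxazolone at 2–1250 μM for 90 minutes at room temperature, in 50 μL HEPES/NaCl/KCl/MgCl2/CaCl2 buffer containing 5% acetonitrile at pH 6.9–7.0. RNA captured on streptavidin was quantified by triplicate qPCR and by Illumina sequencing. The fraction reacted for each sequence was fit to a pseudo-first-order model with bootstrapping, and catalytic enhancement is the median kA divided by the uncatalyzed rate, taken as the low-activity peak of a bimodal Gaussian fit.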

biotinyl-Phe-oxazolone = test: self-aminoacylation, catalytic enhancement (BFO) (fold over background); higher = more active; k-Seq, kA / k0A0; sequences stand for … in GGGAAUGGAUCCACAUCUACGAAUUC…UUCACUGCAGACUUGACGAAGCUG
Method in brief: as §1

biotinyl-Val-oxazolone = test: self-aminoacylation, catalytic enhancement (BVO) (fold over background); higher = more active; k-Seq, kA / k0A0; sequences stand for … in GGGAAUGGAUCCACAUCUACGAAUUC…UUCACUGCAGACUUGACGAAGCUG
Method in brief: as §1

biotinyl-Trp-oxazolone = test: self-aminoacylation, catalytic enhancement (BWO) (fold over background); higher = more active; k-Seq, kA / k0A0; sequences stand for … in GGGAAUGGAUCCACAUCUACGAAUUC…UUCACUGCAGACUUGACGAAGCUG
Method in brief: as §1

biotinyl-Leu-oxazolone = test: self-aminoacylation, catalytic enhancement (BLO) (fold over background); higher = more active; k-Seq, kA / k0A0; sequences stand for … in GGGAAUGGAUCCACAUCUACGAAUUC…UUCACUGCAGACUUGACGAAGCUG
Method in brief: as §1

biotinyl-Met-oxazolone = test: self-aminoacylation, catalytic enhancement (BMO) (fold over background); higher = more active; k-Seq, kA / k0A0; sequences stand for … in GGGAAUGGAUCCACAUCUACGAAUUC…UUCACUGCAGACUUGACGAAGCUG
Method in brief: as §1

Row | Sequence | self-aminoacylation (biotinyl-Ile-oxazolone) | self-aminoacylation (biotinyl-Phe-oxazolone) | self-aminoacylation (biotinyl-Val-oxazolone) | self-aminoacylation (biotinyl-Trp-oxazolone) | self-aminoacylation (biotinyl-Leu-oxazolone) | self-aminoacylation (biotinyl-Met-oxazolone)
1 | AAGUCUGUUAAUAGUCGCAAG [Fam3.1 aminoacylation ribozyme variant] | 1.14 | 1.04 | 1.03 | 0.936 | 1.01 | 1.03
2 | AAGUGUGCUAAUAAUCGCAAG [Fam3.1 aminoacylation ribozyme variant] | 1.35 | 1.51 | 1.29 | 1.09 | 0.989 | 1.25
3 | AAGUGUGCUAAUAGUAGCAAG [Fam3.1 aminoacylation ribozyme variant] | 1.27 | 1.65 | 1.33 | 1.6 | 1.21 | 1.02
4 | AAGUGUGCUAAUGGUCGCAAG [Fam3.1 aminoacylation ribozyme variant] | 0.864 | 2.15 | 1.06 | 1.21 | 0.792 | 0.926
5 | AAGUGUGCUAAUUGUCGCAAG [Fam3.1 aminoacylation ribozyme variant] | 1.5 | 1.56 | 1.49 | 2.65 | 1.51 | 1.45
6 | AAGUGUGCUAUUAGUCGCAAG [Fam3.1 aminoacylation ribozyme variant] | 1.29 | 2.19 | 1.43 | 0.997 | 0.947 | 1.36
7 | AAGUGUGCUGAUAGUCGCAAG [Fam3.1 aminoacylation ribozyme variant] | 1.53 | 2.85 | 1.24 | 1.38 | 1.42 | 1.74
8 | AAGUUAGCUAAUGGUCGCAAG [Fam3.1 aminoacylation ribozyme variant] | 1.22 | 1.77 | 1.08 | 1.55 | 1.17 | 1.3
9 | AAGUUAGCUAUUAGUCGCAAG [Fam3.1 aminoacylation ribozyme variant] | 1.99 | 2.06 | 1.6 | 1.74 | 1.82 | 1.34
10 | AAGUUCGCUAAUAGUCACAAG [Fam3.1 aminoacylation ribozyme variant] | 1.59 | 3.01 | 1.25 | 1.64 | 1.6 | 1.56
11 | AAGUUCGCUAAUAGUCGCAUG [Fam3.1 aminoacylation ribozyme variant] | 2.16 | 8.49 | 2.37 | 3.05 | 2.88 | 2.27
12 | AAGUUGGCUAAUAAUCGCAAG [Fam3.1 aminoacylation ribozyme variant] | 1.72 | 2.15 | 1.67 | 2.04 | 1.34 | 1.29
13 | AAGUUGGCUAAUAGUCGCAAC [Fam3.1 aminoacylation ribozyme variant] | 1.75 | 2.17 | 1.4 | 1.93 | 1.42 | 1.31
14 | AAGUUGGCUAAUAGUCGCAAU [Fam3.1 aminoacylation ribozyme variant] | 2.15 | 2.72 | 1.7 | 2.93 | 1.71 | 1.32
15 | AAGUUGGCUAAUAGUCGCACG [Fam3.1 aminoacylation ribozyme variant] | 1.35 | 2.62 | 1.63 | 2.11 | 1.81 | 1.61
16 | AAGUUGGCUAAUAGUCGGAAG [Fam3.1 aminoacylation ribozyme variant] | 1.47 | 2.31 | 1.48 | 1.15 | 1.1 | 1.22
17 | AAGUUGGCUAAUAGUUGCAAG [Fam3.1 aminoacylation ribozyme variant] | 1.39 | 1.86 | 1.29 | 1.92 | 1.09 | 1.53
18 | AAGUUGGCUAAUAUUCGCAAG [Fam3.1 aminoacylation ribozyme variant] | 2.32 | 2.07 | 2.09 | 3.02 | 2.11 | 1.85
19 | AAGUUUACUAAGAGUCGCAAG [Fam3.1 aminoacylation ribozyme variant] | 1.47 | 1.93 | 1.36 | 1.69 | 1.36 | 1.37
20 | AAGUUUACUAAUACUCGCAAG [Fam3.1 aminoacylation ribozyme variant] | 1.26 | 1.55 | 1.18 | 1.37 | 1.06 | 1.18
21 | AAGUUUACUAAUAGUCGCAAU [Fam3.1 aminoacylation ribozyme variant] | 1.86 | 3.51 | 1.6 | 1.99 | 1.42 | 1.48
22 | AAGUUUACUAAUAGUCGCGAG [Fam3.1 aminoacylation ribozyme variant] | 1.83 | 2.41 | 1.22 | 1.54 | 1.91 | 1.59

Row | Sequence | self-aminoacylation (biotinyl-Ile-oxazolone) | self-aminoacylation (biotinyl-Phe-oxazolone) | self-aminoacylation (biotinyl-Val-oxazolone) | self-aminoacylation (biotinyl-Trp-oxazolone) | self-aminoacylation (biotinyl-Leu-oxazolone) | self-aminoacylation (biotinyl-Met-oxazolone)
23 | AAGUUUACUAAUAUUCGCAAG [Fam3.1 aminoacylation ribozyme variant] | 1.67 | 2.42 | 1.66 | 2.23 | 1.44 | 1.31
24 | AAGUUUACUAGUAGUCGCAAG [Fam3.1 aminoacylation ribozyme variant] | 1.44 | 1.48 | 1.14 | 1.29 | 1.29 | 1.53
25 | AAGUUUAGUAAUAGUCGCAAG [Fam3.1 aminoacylation ribozyme variant] | 1.85 | 3.24 | 1.55 | 1.23 | 1.71 | 1.75
26 | AAGUUUCCUAAUACUCGCAAG [Fam3.1 aminoacylation ribozyme variant] | 0.862 | 0.584 | 0.889 | 0.555 | 0.891 | 1
27 | AAGUUUCCUAAUAGUAGCAAG [Fam3.1 aminoacylation ribozyme variant] | 1.28 | 1.11 | 1.05 | 0.808 | 1.12 | 1.17
28 | AAGUUUCCUAAUAGUCGAAAG [Fam3.1 aminoacylation ribozyme variant] | 1.45 | 2.75 | 1.14 | 1.76 | 1.44 | 1.1
29 | AAGUUUCCUAAUAGUCGCGAG [Fam3.1 aminoacylation ribozyme variant] | 2.47 | 3.66 | 2.48 | 2.04 | 2.26 | 2.04
30 | AAGUUUCCUAAUAUUCGCAAG [Fam3.1 aminoacylation ribozyme variant] | 0.935 | 0.549 | 0.841 | 0.649 | 0.935 | 0.987
31 | AAGUUUCCUAGUAGUCGCAAG [Fam3.1 aminoacylation ribozyme variant] | 1.12 | 1.27 | 1.44 | 0.668 | 1.06 | 1.2
32 | AAGUUUCCUAUUAGUCGCAAG [Fam3.1 aminoacylation ribozyme variant] | 1.29 | 1.87 | 1.32 | 1.35 | 1.22 | 1.24
33 | AAGUUUGAGAAUAGUCGCAAG [Fam3.1 aminoacylation ribozyme variant] | 1.48 | 2.05 | 1.29 | 1.59 | 1.25 | 1.2
34 | AAGUUUGAUAAUAGACGCAAG [Fam3.1 aminoacylation ribozyme variant] | 0.364 | 0.787 | 0.418 | 0.331 | 0.311 | 0.346
35 | AAGUUUGAUAAUAGUCGGAAG [Fam3.1 aminoacylation ribozyme variant] | 0.514 | 0.778 | 0.572 | 0.436 | 0.536 | 0.556
36 | AAGUUUGAUAAUCGUCGCAAG [Fam3.1 aminoacylation ribozyme variant] | 1.54 | 1.99 | 1.13 | 1.43 | 1.26 | 1.25
37 | AAGUUUGCAAAUAGUCACAAG [Fam3.1 aminoacylation ribozyme variant] | 1.05 | 0.954 | 0.982 | 0.887 | 0.949 | 1.11
38 | AAGUUUGCAAAUAGUCGCAAA [Fam3.1 aminoacylation ribozyme variant] | 1.67 | 0.845 | 1.62 | 1.21 | 1.79 | 1.52
39 | AAGUUUGCAAAUAGUCGCAAG [Fam3.1 aminoacylation ribozyme variant] | 0.763 | 1.03 | 0.752 | 0.789 | 0.665 | 0.734
40 | AAGUUUGCAAAUAGUCGCAAU [Fam3.1 aminoacylation ribozyme variant] | 1.35 | 2.03 | 1.26 | 1.78 | 1.27 | 1.64
41 | AAGUUUGCCAAUAGGCGCAAG [Fam3.1 aminoacylation ribozyme variant] | 1.04 | 1.05 | 1.02 | 0.799 | 1.15 | 0.885
42 | AAGUUUGCCAAUAGUCGCAUG [Fam3.1 aminoacylation ribozyme variant] | 1.5 | 1.7 | 1.59 | 1.56 | 1.45 | 1.79
43 | AAGUUUGCCAAUAGUCGCGAG [Fam3.1 aminoacylation ribozyme variant] | 1.61 | 11.6 | 2.09 | 3.77 | 2.25 | 1.96
